Measured values from the supplement of paper PMC10126150.
± gives the standard deviation of the averaged measurements.

System: ATP
Experiment: switch fluorescence ratio, 500 uM ATP over buffer (Cy3 cluster intensity, sum of 5 cycles each) (fold (ratio)); higher = stronger signal-on switching upon ATP binding; sequences stand for … in TCGTCGGCAGCGTCAGATGTGTATAAGAGACAGTTTTTTTTTTTTTTTTTTTTTTTTT…TC
Details: aptamer strand: ATP DNA aptamer (quencher-CACCTGGGGGAGTATTGCGGAGGAAGG + anchor), 100 nM annealed; ATP concentration: 500 uM
Method in brief: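 Five buffer/ATP imaging cycles were run on Cy3-labelled switching-strand clusters on a modified Illumina MiSeq flow-cell, with NaOH stripping and re-annealing between cycles. In each cycle, clusters annealed to 100 nM quencher-labelled ATP aptamer were imaged in selection buffer, then after 15 min with 500 uM ATP at 22 °C. Per cluster, the fluorescence ratio is summed target-cycle over summed buffer-cycle Cy3 intensity, averaged per switch-domain sequence. Only clusters within 100-1000 RFU were kept.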
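Also: ATP exposure 15 min at 22 °C before imaging.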

Sequence | switch fluorescence ratio
TAGCATCTGT | 1 ± 0.03
TTGTTTACTT | 1.04 ± 0.061
CGATTTCGTT | 0.984 ± 0.013
TTATTTTTTT | 1 ± 0.033
CACAACGGGA | 0.985 ± 0.029
GGGGGCATTT | 1 ± 0.031
GAGCTTTGTT | 0.984 ± 0.018
ATGCGAATCG | 0.99 ± 0.038
TCTTAAGAGT | 0.9987 ± 0.0022
ATTTAGGTTT | 1.01 ± 0.012
CAGGCTAGGC | 1.02 ± 0.056
TCTCTAGCTG | 1.05 ± 0.041
TAGTGATGGT | 0.973 ± 0.029
CGGTTCCCTA | 0.978 ± 0.033
TTTTATGGGT | 0.992 ± 0.018
CTATTTATCA | 1.02 ± 0.053
ATCGGGAGGT | 1.04 ± 0.061
CTTGTCGTGC | 0.995 ± 0.033
GCTGATTGGC | 1.05 ± 0.13
AAGCAGTTAC | 3.41 ± 0.3
AGGGTTTCAG | 0.98 ± 0.026
GGGCAGAAAT | 1.01 ± 0.048
TTCTATCGTT | 1.01 ± 0.031

Sequence | switch fluorescence ratio
GGATGGTGCA | 0.94 ± 0.062
GTTTAGTATT | 0.999 ± 0.019
CCCCGTGTAT | 2.48 ± 0.046
TATATAGAGC | 1.02 ± 0.011
ATAGTTGGTG | 0.994 ± 0.029
TTCTCGGGGG | 1.04 ± 0.043
AAATTATCCA | 1.016 ± 0.0092
CTTAGGCGGT | 1.038 ± 0.0062
CGGGACGGAG | 0.997 ± 0.11
GCGTCCGCTG | 1.22 ± 0.039
AGCAGGGGTA | 1.17 ± 0.26
TTTGAA | 0.9556 ± 0.0024
ATACTTTAAA | 1.17 ± 0.1
CAATCTTCGT | 1.02 ± 0.021
ACTCAATTTT | 1.05 ± 0.03
TGCTTCTAAT | 1.02 ± 0.021
AGGAAACTTA | 0.988 ± 0.0076
TCGGGTTGGT | 1.02 ± 0.061
GTGAGGGGTA | 0.975 ± 0.033
TTCGGGGGTA | 0.97 ± 0.023
ACAAGCGTTT | 1.01 ± 0.036
GAGGCAAAGT | 1.094 ± 0.0059
TTGTGGAAAA | 0.953 ± 0.03

Sequence | switch fluorescence ratio
TGGCCACTTA | 1.073 ± 0.0058
AGTAGGAAGG | 1.01 ± 0.019
ATAGAGACTA | 1.006 ± 0.0078
TCAGCTCTTC | 0.987 ± 0.042
TGTGGGAGCT | 1.04 ± 0.07
AAAAGGTCAG | 1.01 ± 0.021
ACTAGTAACG | 0.9938 ± 0.0098
TGCTATATGT | 0.993 ± 0.013
AAAGGGCATG | 1 ± 0.011
AAGGTATGGG | 1.06 ± 0.073
TGGGTATGG | 1.07 ± 0.072
TGGAAGGAGC | 1.07 ± 0.049
AGTTTATTAT | 1.02 ± 0.015
TCGACGGGGA | 1.1 ± 0.047
GGTCCAAAAG | 1.008 ± 0.0075
GAGTGGGATG | 0.9633 ± 0.0035
GGGACTCCAA | 1.24 ± 0.35
TGGGATTGTA | 0.987 ± 0.024
GACGGGCAGG | 1.027 ± 0.0056
CGGGAATGGC | 1.06 ± 0.079
ATTTTGGACC | 1 ± 0.021
TGGGGGCGTA | 0.9641 ± 0.0025
CGGGTCATTT | 0.9691 ± 0.0035

Sequence | switch fluorescence ratio
GCATGCGCTG | 0.982 ± 0.015
GATCTGTGGA | 0.95 ± 0.052
TATGGATTTT | 0.987 ± 0.016
CAGTGATGAG | 1.03 ± 0.012
TTTTCAGTGG | 1.02 ± 0.021
ATTTTTTTG | 0.955 ± 0.021
CTAACGGGTA | 1 ± 0.018
TTAAGGGATA | 1.03 ± 0.082
ATGGGGTCCA | 0.976 ± 0.042
CATAAGGTTG | 0.991 ± 0.017
GCGTAGAGCG | 0.9878 ± 0.0012
GCTCGTTAGG | 0.995 ± 0.029
TTGGGGACTC | 1 ± 0.026
TTGAGTGTTT | 1.02 ± 0.017
AATTCGTGCA | 1.03 ± 0.036
CAAAAGTCGA | 1.04 ± 0.031
CTTATTAACT | 0.9954 ± 0.0069
TTGTTTTCGG | 0.961 ± 0.02
TCGGGTCCGC | 1.06 ± 0.046
GGGATGGCTG | 1.01 ± 0.055
TCTTTTCGAA | 1.01 ± 0.033
AAACGGGGAG | 0.991 ± 0.021
ACCGGGGATT | 1 ± 0.018

Sequence | switch fluorescence ratio
TATTAACGAG | 0.995 ± 0.032
ATGATATTGA | 0.99 ± 0.011
ATTGGGCTTC | 1.01 ± 0.015
TACAGGCTCG | 1.007 ± 0.01
GATAATAGGG | 0.99 ± 0.045
TAAGGGGGGT | 1.02 ± 0.034
ACGACAGCAG | 1.39 ± 0.033
CGGCAATCCT | 3.99 ± 0.15
ATGAATTCTC | 1.01 ± 0.078
TTGTGATTGC | 1.03 ± 0.089
TACCGTGGGG | 1.05 ± 0.038
AATGGTGTAG | 1.003 ± 0.0013
CTTGGGGCTA | 1.03 ± 0.088
ATCTTGGCTG | 0.983 ± 0.03
GGAGAATTAT | 0.991 ± 0.024
CTAGACGTTT | 1.01 ± 0.047
AATAATCGCC | 1 ± 0.05
AGGGATCGGG | 1.002 ± 0.01
TTCGTGTCCC | 0.994 ± 0.019
TTAAAGCTGG | 0.978 ± 0.017
TTGTTTTGGT | 0.966 ± 0.016
ACATGGAGGG | 1.01 ± 0.057
AGTTCTAGGT | 0.986 ± 0.018

Sequence | switch fluorescence ratio
CAATTATCGC | 0.988 ± 0.028
TCTAGTGGTT | 1 ± 0.019
CAGAACCCGC | 1.1 ± 0.015
TGGGTAAAAA | 0.995 ± 0.014
GGTCTTGTTT | 0.9891 ± 0.0078
CGACATTGCA | 1.09 ± 0.022
AGGGGGTCGG | 1.01 ± 0.03
CGTACGCCGG | 0.993 ± 0.021
ACTAAAGGGC | 1.07 ± 0.034
TAAACTCCTT | 1.05 ± 0.035
TGGGAGAGT | 1.011 ± 0.0034
GGGGGAAATG | 0.994 ± 0.029
GTATTTTGCT | 0.979 ± 0.031
CTTATTGTAG | 0.964 ± 0.061
AGAACCTGGG | 0.981 ± 0.055
ACCGGGGCTA | 1.03 ± 0.031
AGATGAGGGA | 1.02 ± 0.032
AGGTTAATCT | 1.01 ± 0.018
GCGGGGGATG | 1.01 ± 0.034
TTTCGGGACT | 1.03 ± 0.048
CCACAAGGGG | 1.02 ± 0.019
CTCCTTTATT | 1.04 ± 0.037
AGCGCTGCCT | 0.996 ± 0.031

Sequence | switch fluorescence ratio
TAAAATTGAA | 0.9905 ± 0.0041
GAAGGAAAAG | 0.992 ± 0.099
GGTTATACGA | 1.034 ± 0.0054
CAGGGGTCTG | 0.997 ± 0.038
TTGCTTGAGA | 0.996 ± 0.028
AGTTTGGGAG | 0.992 ± 0.021
AACATTTTAA | 0.965 ± 0.04
TAATAAAGGT | 0.995 ± 0.025
GATCCGAGGG | 0.974 ± 0.018
TATGTTGTCG | 1.08 ± 0.12
AAATGTTTGC | 1.01 ± 0.018
TTTTGGGAAT | 1.04 ± 0.052
GCTTACGTCA | 1.05 ± 0.086
GCATGAGCGG | 1.01 ± 0.013
CAGATTTAGC | 0.9728 ± 0.0068
CGGGCGGGAC | 1.59 ± 0.021
GATGTTAAGA | 0.998 ± 0.046
GGCTCGGTAC | 1.24 ± 0.13
GGAATGAAGG | 1 ± 0.0041
